From the supplement of paper PMC9112550, “Optimization of the antimicrobial peptide Bac7 by deep mutational scanning” (BMC Biology, 2022)

System: Escherichia coli TOP10
Test: shrunken log2 fold change of peptide-encoding DNA abundance (4.5 h post-induction vs induction); higher = less antimicrobial activity (less host growth inhibition)
Conditions: time post-induction: 4.5 h; library: site-saturation at positions 5, 18, 19, 20
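Also: peptides expressed intracellularly from a pBAD plasmid library in pooled LB shake-flask culture, induced with 0.3% L-arabinose, DNA abundance read by NGS, three biological replicates, DESeq2 with apeglm shrinkage.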

| Sequence | shrunken log2 fold change |
| --- | --- |
| RRIRVRPPRLPRPRPRPLMFPRP | -0.449 |
| RRIRHRPPRLPRPRPRPYQEPRP | -0.138 |
| RRIRCRPPRLPRPRPRPEMSPRP | -0.129 |
| RRIRVRPPRLPRPRPRPRQNPRP | 0.00342 |
| RRIRWRPPRLPRPRPRPVYLPRP | -0.229 |
| RRIRHRPPRLPRPRPRPCREPRP | 0.0163 |
| RRIRHRPPRLPRPRPRPTGGPRP | 0.0928 |
| RRIRTRPPRLPRPRPRPSHAPRP | -0.345 |
| RRIRMRPPRLPRPRPRPWFSPRP | -0.0415 |
| RRIRMRPPRLPRPRPRPSRHPRP | 0.228 |
| RRIRARPPRLPRPRPRPAPDPRP | 0.93 |
| RRIRGRPPRLPRPRPRPGKNPRP | 0.0656 |
| RRIRARPPRLPRPRPRPLSYPRP | -0.00336 |
| RRIRVRPPRLPRPRPRPQHWPRP | 0.171 |
| RRIRSRPPRLPRPRPRPPQDPRP | 0.264 |
| RRIRKRPPRLPRPRPRPDGMPRP | -0.00135 |
| RRIRIRPPRLPRPRPRPEYRPRP | -1.12 |
| RRIRTRPPRLPRPRPRPDCDPRP | 0.209 |
| RRIRQRPPRLPRPRPRPCYSPRP | -0.0444 |
| RRIRFRPPRLPRPRPRPGNFPRP | -0.133 |

| Sequence | shrunken log2 fold change |
| --- | --- |
| RRIRTRPPRLPRPRPRPLLHPRP | 0.0651 |
| RRIRHRPPRLPRPRPRPACTPRP | 0.0224 |
| RRIRLRPPRLPRPRPRPEQDPRP | -0.125 |
| RRIRNRPPRLPRPRPRPFLDPRP | -0.358 |
| RRIRIRPPRLPRPRPRPYYHPRP | -0.839 |
| RRIRQRPPRLPRPRPRPIAKPRP | -0.00229 |
| RRIRFRPPRLPRPRPRPTGSPRP | -0.103 |
| RRIRMRPPRLPRPRPRPRNFPRP | 1.12 |
| RRIRPRPPRLPRPRPRPGFDPRP | 0.131 |
| RRIRWRPPRLPRPRPRPFSKPRP | -0.0531 |
| RRIRTRPPRLPRPRPRPSAYPRP | -0.144 |
| RRIRCRPPRLPRPRPRPLYQPRP | -0.543 |
| RRIRERPPRLPRPRPRPPFDPRP | -0.0468 |
| RRIRVRPPRLPRPRPRPVFPPRP | 0.038 |
| RRIRTRPPRLPRPRPRPLIKPRP | -1.06 |
| RRIRFRPPRLPRPRPRPPQFPRP | 0.0547 |
| RRIRVRPPRLPRPRPRPGMEPRP | 0.232 |
| RRIRPRPPRLPRPRPRPFLKPRP | -0.159 |
| RRIRCRPPRLPRPRPRPFNFPRP | -0.813 |
| RRIRIRPPRLPRPRPRPCDVPRP | -0.124 |

| Sequence | shrunken log2 fold change |
| --- | --- |
| RRIRSRPPRLPRPRPRPKTMPRP | 0.0109 |
| RRIRTRPPRLPRPRPRPRHIPRP | -0.158 |
| RRIRRRPPRLPRPRPRPSPWPRP | 0.335 |
| RRIRNRPPRLPRPRPRPMEAPRP | 0.0369 |
| RRIRRRPPRLPRPRPRPGPSPRP | 0.442 |
| RRIRTRPPRLPRPRPRPWGRPRP | 0.00879 |
| RRIRQRPPRLPRPRPRPVPQPRP | 0.0925 |
| RRIRFRPPRLPRPRPRPTHKPRP | -0.0458 |
| RRIRFRPPRLPRPRPRPLGQPRP | -0.187 |
| RRIRQRPPRLPRPRPRPMPCPRP | -0.00136 |
| RRIRWRPPRLPRPRPRPNNQPRP | -0.494 |
| RRIRQRPPRLPRPRPRPRCVPRP | 1.47 |
| RRIRARPPRLPRPRPRPTPEPRP | 0.694 |
| RRIRCRPPRLPRPRPRPKDRPRP | -0.0193 |
| RRIRTRPPRLPRPRPRPSAQPRP | 0.0735 |
| RRIRERPPRLPRPRPRPCTRPRP | 0.0517 |
| RRIRMRPPRLPRPRPRPDCKPRP | -0.0414 |
| RRIRYRPPRLPRPRPRPGGHPRP | -0.278 |
| RRIRDRPPRLPRPRPRPEGPPRP | 1.51 |
| RRIRSRPPRLPRPRPRPDELPRP | -0.0328 |
